Numbering of substitutions follows the chain as printed.
Assays:
[1] = biological target: T1, MBP-CND (RAG1 central non-core domain) (murine, UniProt P15919 87-217); assay: EMSA; 5 mM Mg2+; EMSA: 10 mM Tris pH 8.0, 5 mM MgCl2, 2 mM DTT, 6% glycerol, 100 mM NaCl, 25 C, 1 nM 32P-DNA; 3.5/8% discontinuous nondenaturing gel; settings: protein: recombinant; tags: N-terminal MBP; label: 5' 32P; hairpin, fully complementary
T1 sequence: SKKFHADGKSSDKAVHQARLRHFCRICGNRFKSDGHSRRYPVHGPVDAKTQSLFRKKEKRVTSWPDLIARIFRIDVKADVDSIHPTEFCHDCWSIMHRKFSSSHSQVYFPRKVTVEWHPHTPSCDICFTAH

MBP-CND+bZDD = biological target: T2, MBP-CND+bZDD (murine, UniProt P15919 87-380); assay: as above; settings: protein: recombinant; tags: N-terminal MBP; chain copies: 2; label: 5' 32P; hairpin, fully complementary
T2 sequence: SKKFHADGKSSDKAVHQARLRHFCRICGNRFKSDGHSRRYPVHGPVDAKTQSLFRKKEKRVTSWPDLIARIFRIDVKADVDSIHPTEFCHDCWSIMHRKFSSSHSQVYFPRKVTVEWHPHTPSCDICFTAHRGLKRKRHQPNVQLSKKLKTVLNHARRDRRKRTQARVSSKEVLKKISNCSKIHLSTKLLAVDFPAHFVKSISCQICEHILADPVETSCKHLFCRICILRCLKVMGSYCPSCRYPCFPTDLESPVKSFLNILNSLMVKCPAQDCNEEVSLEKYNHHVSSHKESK

[2] = biological target: T1, MBP-CND (RAG1 central non-core domain); assay: competition; 1.5 uM MBP-CND, 1 nM labeled WT 12-RSS; EMSA: 10 mM Tris pH 8.0, 5 mM MgCl2, 2 mM DTT, 6% glycerol, 100 mM NaCl, 25 C, 1 nM 32P-DNA; 3.5/8% discontinuous nondenaturing gel; settings: protein: recombinant; tags: N-terminal MBP; blunt
[3] = biological target: the molecule itself; assay: SEC-MALS; MALLS-SEC of MBP fusion proteins, 20 mL Superdex 200, starting concentration 3-10 μM, GFB buffer (20 mM Tris pH 8.0, 0.2 M NaCl, 50 μM ZnCl2, 5 mM βME)
MBP-bZDD = biological target: T3, MBP-bZDD (murine, UniProt P15919 218-380); assay: EMSA; 5 mM Mg2+; EMSA: 10 mM Tris pH 8.0, 5 mM MgCl2, 2 mM DTT, 6% glycerol, 100 mM NaCl, 25 C, 1 nM 32P-DNA; 3.5/8% discontinuous nondenaturing gel; settings: protein: recombinant; tags: N-terminal MBP; chain copies: 2; blunt
T3 sequence: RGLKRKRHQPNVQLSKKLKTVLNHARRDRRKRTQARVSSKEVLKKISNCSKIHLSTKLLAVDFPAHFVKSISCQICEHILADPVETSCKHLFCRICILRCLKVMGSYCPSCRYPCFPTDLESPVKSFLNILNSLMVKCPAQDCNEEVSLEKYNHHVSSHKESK

[4] = biological target: T1, MBP-CND (RAG1 central non-core domain); assay: EMSA; 5 mM Mg2+; range covers EMSA and anisotropy; EMSA: 10 mM Tris pH 8.0, 5 mM MgCl2, 2 mM DTT, 6% glycerol, 100 mM NaCl, 25 C, 1 nM 32P-DNA; 3.5/8% discontinuous nondenaturing gel; settings: protein: recombinant; tags: N-terminal MBP; blunt
[5] = biological target: T1, MBP-CND (RAG1 central non-core domain); assay: fluorescence anisotropy; range covers EMSA and anisotropy; EMSA: 10 mM Tris pH 8.0, 5 mM MgCl2, 2 mM DTT, 6% glycerol, 100 mM NaCl, 25 C, 1 nM 32P-DNA; 3.5/8% discontinuous nondenaturing gel; settings: protein: recombinant; tags: N-terminal MBP; blunt

GATATGGCTCGTCTTATAAGACGAGCCATATC (structured_DNA) [32 nt hairpin coding flank]: binds [1]; binds (MBP-CND+bZDD).

B1: mutant nonamer (MN) 12-RSS (dsDNA)
DNA 1: GATATGGCTCGTCTTACACAGTGATATAGACCTTAAGGCTCTGATCCAATCGAGCGGAG
DNA 2: CTCCGCTCGATTGGATCAGAGCCTTAAGGTCTATATCACTGTGTAAGACGAGCCATATC
B1: binds [2].

B2: MBP-bZDD (domain or fragment, murine, UniProt P15919 218-380, looked up)
chain: T3 sequence
notes: RAG1, murine, residues 218-380 (basic region plus zinc dimerization domain, ZDD 265-380); Four zinc ions per monomer; Predicted dimeric mass 123,634 Da; also called MBP-RAG1(218-380); basic-zinc dimerization domain fused to MBP; source: E. coli BL21, purified (amylose resin, SEC); not shown: MBP, N-terminal, kept
B2 was tested, and the “stoichiometry N” value [3] was 2.

B3: WT 12-RSS (dsDNA)
DNA 1: GATATGGCTCGTCTTACACAGTGATATAGACCTTAACAAAAACCTCCAATCGAGCGGAG
DNA 2: CTCCGCTCGATTGGAGGTTTTTGTTAAGGTCTATATCACTGTGTAAGACGAGCCATATC
B3 gave a Kd (MBP-bZDD) of about 1730 nM and a Kd [4] of 1550 nM.

B4: mutant heptamer (MH) 12-RSS (dsDNA)
DNA 1: B3 DNA 1 with C17G, C19G, G21A, T22G, G23C
DNA 2: B3 DNA 2 with C37G, A38C, C39T, G41C, G43C
B4: binds [2].

B5: WT 12-RSS, Oregon Green (dsDNA)
DNA 1: B3 DNA 1
DNA 2: B3 DNA 2
B5 gave a Kd [5] of 1550 nM.
